Consider 40 sequences from the nanobody polyreactivity screen of Harvey et al. (2022).

This series in a line: yeast display, Sf9 membrane polyspecificity reagent, FACS + sequencing; frameworks hold sequencing errors. In outline: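 Galactose-induced (36–48 hours) yeast carrying a synthetic nanobody display library were exposed to 10% biotinylated, detergent-solubilized Sf9 membrane reagent at 4 °C for 1 hour. FACS followed streptavidin microbead enrichment, using low and high (top ~1%) gates for expression (anti-HA) and reagent binding (streptavidin). Colony PCR, MiSeq 2 × 250 sequencing and CDR-length filtering followed. Labels for polyreactivity reflect the gate of origin.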
As for “QVHLVESGGGLVQAGGSLRLSCAASGSIFLAYAMGWYRQAPGKERELVAAISGGGSTYADSVKGRFTISRDNAKNTVYLQMNSLKPEDTAVYYCNADGRGDRFWSNFRFDYWGQGTQVTVSS”, the “polyreactivity (PSR sort gate)” value is “low polyreactivity”.
Take “QVQLVESGGGLVQAGGSLRLSCAASGSIFYFNAMGWYRQAPGKERQLVAAITSGGNTYYADSVKGRFTISRDNAKNTVYLQMNSLKPEDTAVYYCAKRGFRFPYPSLDYWGQGTQVTVSS”: the “polyreactivity (PSR sort gate)” value is “low polyreactivity”.
The value for “QVQLVESGRGLVQAGGSLRLRCAASGSTFNENVMGWYRQAPGKERELVAAIRTGSGSTYYADSVKGRFTISRDNAKNTVYLQMNSLKPEDTAVYYCYKDRGYSSLFSLFPGDYWGQGTQVTVSS” was “low polyreactivity”; that for “QVQLVESGGGLVQAGGSLRLSCAASGSILTRYAMGWYRQAPGKERELVAANTYSGDSTYYADSVKGRFTISRDNAKNTVYLQMNSLKPEDTAVYYCAARKYYARYYWGQGTQVTVSS” was “high polyreactivity”; that for “QVQLVESGGGLVQAGGSLRLSCAASGSTFQDYAMGWYRQAPGKERELVAAITYSGGSTYYADSVKGRFTISRDNAKNTVYLQLNSLKPDVTAVYYCAAKDTTVFYYDDDYWGQGTQVTVSS” was “low polyreactivity”.
Turning to “QVQLVESGGGLVQAGGSLRLSCAASGSTLTFNAMGWYIQAPGKERELVAAISWSDTDTYYADSVKGRFTISRDNAKNTVYLQMNSLKPEDTAVYYCAATLSAYEMDYWGQATQVTVSS”, the “polyreactivity (PSR sort gate)” value is given as “low polyreactivity”.
The value for “QVQLVESGGGLVQAGGCLRLSCAASGSTFLRNTMGWYRLAPGKERELVATISAGASNTYYADSVKGRFTISRDNAKNTDYLQKNSLTPEATAVYYCAARLLTWYYGIRYYWGQGTQVTVSS” was “high polyreactivity”; that for “QVQLVESGGGLVQAGGSLRLSCAASGLTLEGYVMGWYRQAPGKERELVAAISRRGASTYYADSVKGRFTISRDNAKNTVYLQMNSLKTEDTAVYYCAAYGAYNNYRGQTSLGYGYDSWGQGTQVTVSS” was “high polyreactivity”.
With “QVQLVESGGGLVQAGGSLRLSCAASGRIFWEYAMGWYRQAPGKERELVAAITWRVGSTYYADSVKGRFTISRDNAKNTVYLQMNSLKPEDTAVYYCVARSQSIRYTYIRSYYWGQGTQVTVSS”, the “polyreactivity (PSR sort gate)” value is “low polyreactivity”.
As for “QVQVVESGGGLLQAGGSLRLSCAASGSTFGWYAMGWYRQAPWKERELVAANTGDSASTYYADSVKGRFTISRDNAKNTVYLQMNSLKPEDTAVYYCAASKFSDFGYQAVIGYGYWGQGTQVTVSS”, the “polyreactivity (PSR sort gate)” value is reported as “low polyreactivity”.
The value for “QVQVVESGGGLVQAGGSLRLTCAASGRTFYKNAMGWYRQAAGKERELFAAITTRGGTTFYADSVKGRFTISRDNAKNTDYLQLNSMIPEDTAVDYCAKDSYTRPRGYDFWGQGTHVTVSS” was “high polyreactivity”; that for “QVQLVESGGGLDQAGGSLRLSCAASGRTFYSYAMGWYRQAPGKERELVAAITSGGRTKYADSVKGRFTISRDNAKNTVYLQMNSLKAEDTAVYYCAADRVSYYTTPYDYWGQGTQVTVSS” was “high polyreactivity”.
To “QVQLVESGGGLVQAGGSLRLSCAAYGITFSKNAKGWYRQAPGKERELVAAISRGGSSYYADSVKGRFTISRDNAKNTVYLQMNSLKPEDTAVYYCSAGWLRKYYYWGQGTQVTVSS” belongs “low polyreactivity”; to “QVHIVESGGGLVQAGGRLRLSCADSGTTFSYYTMGWYRQSPGKERELVAAISTSGGSTYYADSVKGRFTISRDNAKNTVYLQMNSLKPEDTAVYYCDARYGRYYKYNYWGQGTQVTVSS”, “high polyreactivity”.
Take “QVQLVESGGGLVQAGGSLRLSCAASGRTFRLFAMGWYRQAPGKERELVAAIRSGGNTNYADSVKGRFTISRDNAKNTVYLQMNSLKPEDTAVYYCAATTYVVASRYVGSLGDDYWGHGTQVTVSS”: the “polyreactivity (PSR sort gate)” value is “high polyreactivity”.
As to “QVQLVESGGGLVQAGGSLRLSCAASGLTCSYYAMGWYRQAPGQERELVAAISITGSTNYADSVKGRFTISRDNAKNTVYLQMNSLKPEDTAVYYCAARVRSGTGVGFDYWGQGTQVTVSS”, the “polyreactivity (PSR sort gate)” value was “high polyreactivity”.
Consider “QVQLVESGGCLVQAGGSLRLSCAASGSIFYNNAMGWYRQAPGKERELVASSTGGGSTYADSVKGRFTISRDNAKNRVYVQMNSLKPEDTAVYYCAVGRYFVRYDYWGQGSQVTVSS”, for which the “polyreactivity (PSR sort gate)” value was “low polyreactivity”.
To “QVQLVESGGGLVQAGGSLRLSCAASGSTFRYYAMGWYRQAPGKERELVAAISGSGGRTYYADSVKGRFTISRDNAKNTVYLQMNSLKPEDTAVYYCNTRGRRTDYDYWGQGTQVTVSS” belongs “high polyreactivity”; to “QVQLVESGGGLVQAGGSLRLSCAASGRTFLPYAMGWYRQAPGKERELVAAIDSSGGSTYYADSVKGRFTISRDNAKNTVYLQMNSLKPEDTAVYYCAADLYSSSYLYDSWGQGTQVTVSS”, “low polyreactivity”.
Consider “QVQLVESGGGLVQAGGSIRLTCAASGSTFWEYVMGWYRQAPGKERELVAAINSGGRTYYADSVKGRFTISRDNAKNTVYLQMNSLKPEDTAVYYCAADTVYRTHHYAQHYYYWGQGTQVTVSS”, for which the “polyreactivity (PSR sort gate)” value is given as “high polyreactivity”.
The value for “QVQLVESGGGLVQAGGSLRLSCAASGSTFRWYAMGWYRQAPGKERELVASITWSGGGTYYADSVKGRFTISRDNAKNTVYFQMNSLKPEDTAVYYCNRRTWRYETRGDDYWGQGTQVTVSS” was “high polyreactivity”; that for “QVQLVESGGGLVQAGGSLRLSCAASGSTVVYNVMGWYRQAPGKEREVVAAFRWRGGSTYADSVKGRFTISRDNAKNTVYLQMNCLKPEDTAVYYCAAGIPRYWYAGHYDYWGQGTQVTVSS” was “low polyreactivity”; that for “QVQLVESGGGLVQAGGSLRLSCPASGFIFRRYVMGWYRQSPGKERELVAAISKSAVNTYYADSVKGRFTISRDNAKNTVYLQMNSLIPEDTEVYYCNKYGYKGGVGYDYWGQGTQVTVSS” was “high polyreactivity”.
“QVHLVESGGGLVQAGGSLRLSCAASGSTFTSYAMGWYRQAPGKERELVATISKISGSTYYADSVKGRFTISRDNAKNTVYLQMNSLKPEDTAVYYCAAKQGWVQSSILWYRAYGTLNVRRERMDYWGQGTQVTVSS”: the “polyreactivity (PSR sort gate)” value is reported as “high polyreactivity”.
To “QVQLVESGGGLVQAGGSLRLSCPASGNIFVYYAMGWSRQAHGKERELVAAITSDVSTYYADSVKGRFTISRDNAKNTVYLQMNSLKPEDTAVYYCATTGYGSYVIYWGQGTQVTVSS” belongs “low polyreactivity”.
As for “QVQLVESGGGLVQPGGSLRLSCAASGSIFYRNAMGWYRQAPGKERELVAAITWSGVNTYYADSVKGRFTISRDNAKNTVYLQMNSLKPEDTAVYYCAVPSRYWLNRGFDYWGQGTQVTVSS”, the “polyreactivity (PSR sort gate)” value is recorded as “low polyreactivity”.
To “QVQLVESGGGLVQAGGSLRLSCAASGSTFYHNVMGWYRQAPGKERELVASIDTGDSTNYADSVKGRFTISRDNAKKTVYLQMNSLKPEDTAVYYCNAVWNTFISGRSYDYWGQGTQVTVSS” belongs “low polyreactivity”; to “QVQLVESGGGLVQAGGSLRLSCAASGIILYDYAMGWYRQAPGKERELVAGINRSGGITYYADSVKGRFTISRDNAKNTVYLQMNSLKPEDTAVYYCNAVFRYGATRSYRYDYWGQGTQVTVSS”, “high polyreactivity”.
The value for “QVQLVESGGGLVQAGGSLRLSCAASGSILEIYAMGWYRQAPGKEREFVASISWDVSSTYYADSVKGRFTISRDNAKNTVYLQMNSLKPEDTAVYYCATSLVWGLYDWYYDLSAAFDYWGQGTQVTVSS” was “low polyreactivity”.
As to “QVQLVESGGGLVQAGGSLRLSCAASGRTFRHYAMGWYRQAPGKERELVAAISGSGGRTYYADSVKGRFTISRDNAKNTVYLQMNSLKPEDTAVYYCNAYTWTYGEYEYWGQGTQVTVSS”, the “polyreactivity (PSR sort gate)” value is given as “high polyreactivity”.
Consider “QVQLVESGGGLVQAGGSLRLSCADSRSIITNNAMGWYRQAPGKERELVAAISGSGGSTYYADSVKGRFTISRDNAKNTVYLQMNSLKPEDTAVYYCAANKSSRRMNYWGLGTQVTVSS”, for which the “polyreactivity (PSR sort gate)” value is “high polyreactivity”.
Regarding “QVQLVESGGGLVQAGGSLRLSCAASGIIFFFYAMGWYRQEPGKERELVAAISDEGVSTDYADSVKGRFTISRDNAKNTVYLQMNSLKPEDTAVYYCAAKTERVYPWFSFGYWGQGTQVTVSS”, the “polyreactivity (PSR sort gate)” value is recorded as “low polyreactivity”.
To “QVQLVESGGGLVQAGGSLRLSCAASGSIFFPYLMGWYRQAPGKERELVAAITYRAGSTYYADSVKGRFTISRDNAKNTVYLQMNSLKPEDTAVYYCAAVVSRSGEFGYWGQGTQVTVSS” belongs “low polyreactivity”; to “QVQLVESGGGLVQAGGSLRLSCSASGRIFAAYAMGWYRQAPGKERELVATITRGGSTYYADSVKGRFTISRDNAKNTVYLQMNSLKPKDTAVYYCAVKRGFTQYKPFNYWGQGTQVTVSS”, “high polyreactivity”; to “QVQLVESGGGIVQAGRSLRVSCADSGSAFPRYDMGWYRPAPGKERELVAAISRGGSTNYADSVKGRFTLSRDNATNSVSLQMFCLIPVDPAVYYCAAQIFESAYGIVYWGQRTQVTVSS”, “low polyreactivity”.
As for “QVQLVESGGGLVQAGGSLRLSCAASAFTLARYAMGWYRQAPGKERELVAAITKRGGSTYYADSVKGRFTISRDNAKKTVYLQMNSLKPEDTAVYYCNGASRYSQTFEFDYWGQGTQVTVSS”, the “polyreactivity (PSR sort gate)” value was “high polyreactivity”.
To “QVQLVEAGGGLVQAGGSLRLSCAASGRIIVRNAMGWYLQPPGKESELVAAISWSSGGTYYADSVKGRFTISRDNAKNTVYLQMNSLKPEDTAVYYCNADPSRAGDYWGQGTQVTVSS” belongs “low polyreactivity”.
To “QVQLVESGGGLVQAGGSLRLICAASGSIFGHNAMGWYRQAPGKERELVAAISRGTRTNYADSVKGRFTISRDNEKNTVYLQMNSLKPEDTAVYYCNLQPGRGPYVGRKYGYWGQGTQVTVSS” belongs “high polyreactivity”; to “QFQLVESGGGLVQAGGSLRLSCAASGRIFRVNAKGWYRPAPGKERELVAGITQGDGSTYYADSVKGRFTISRDNAKNTVYLQMNSLKPEDTAVYYCAASTGPDRQFDSWGQGTQVTVSS”, “low polyreactivity”.
With “QVQLVESGGGLVQAGGSLRLSCAASGFTFSVYAMGWYRQAPGKERELVADIDWSGGSTYYADSVKGRFTISRDNAKNTVYLQMNSLNPEDTAVYYCAADYYYPDSYVQGTSGEYWGQGTQVTVSS”, the “polyreactivity (PSR sort gate)” value is given as “low polyreactivity”.
